From PMC2946933
Values joined by “and” are separate entries in the source; they are usually repeats but may differ in a detail not shown here. Identical values can stand only once.

How the values were obtained:
Conditions in all cases: EMSA: 50 mM Tris-HCl pH 7.5, 100 mM KCl, 10 mM MgCl2, room temperature, SPR: same buffer, 25 C, Tb footprinting: 50 mM Tris-HCl pH 8.0, 100 mM NaCl
Hfq wild type [1] = molecular target: T1, Hfq wild type (Escherichia coli?) (UniProt P0A6X3); experiment: EMSA
Hfq wild type [2] = molecular target: T1, Hfq wild type; experiment: SPR
Hfq wild type [3] = molecular target: T1, Hfq wild type; experiment: Tb(III) footprinting

T1 sequence (P0A6X3 whole entry): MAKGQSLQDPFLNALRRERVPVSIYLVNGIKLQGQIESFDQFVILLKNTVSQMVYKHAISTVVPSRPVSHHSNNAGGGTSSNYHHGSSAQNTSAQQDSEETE

Row | Substance | Kd (Hfq wild type [1]) [nM] | Kd (Hfq wild type [2]) | also measured
1 | GCAGCGUUACAUUCCCAUCCACUGGGGAAAGACGCGGCGCUGAUUGGUGAAGUGGUGGAACGUAAAGGUGUUCGUCUUGCCGGUCUGUAUGGCGUGAAACGAACCCUCGAUUUACCACACGCCGAACCGCUUCCGCGUAUAUGCUAAUAAAAUUCUAAAUCUCCUAUAGUUAGUCAAUGACCUUUUGCACCGCUUUGCGGUGCUUUCCUGGAAGAACAAAAUGUCAUAUACACCGAUGAGUGAUCUCGGACAACAAGGGUUGUUCGACAUCACUCGGACAAAUAUUGGAUCCGCUCGG [fhlA220 mRNA] | 15 |  | 
2 | GGCAGUUAGUCAAUGACCUUUUGCACCGCUUUGCGGUGCUUUCCUGGAAGAACAAAAUGUCAUAUACACCGAUGAGUGAUCUCGGACAACAAGGGUUGUUCGACAUCACUCGGACAACAAAUAUUGGAUCCAGCUCG [fhlA53 mRNA] | 70 | 43 nM and 50 nM | binding (Hfq wild type [3]): binds
3 | fhlA53 mRNA |  | 43 nM and 50 nM and 5 nM | Kd (Hfq wild type [1]; 10 mM Mg2+): 70 nM
4 | OxyS sRNA with fhlA220 mRNA | 23 |  | 
5 | fhlA220 mRNA |  |  | Kd (Hfq wild type [1]; Hfq hexamer, 10 mM Mg2+): 15 nM
